Measurements published in article PMC12207370, “Macrocyclic Peptide Probes for Immunomodulatory Protein CD59: Potent Modulators of Bacterial Toxin Activity and Antibody‐Dependent Cytotoxicity” (Angewandte Chemie (International Ed. in English), 2025).

Target: T1, biotinylated CD59 (Homo sapiens, UniProt P13987)
T1 construct: Recombinant soluble human CD59 with an additional C-terminal cysteine residue
T1 sequence (P13987 26-102 limits assumed): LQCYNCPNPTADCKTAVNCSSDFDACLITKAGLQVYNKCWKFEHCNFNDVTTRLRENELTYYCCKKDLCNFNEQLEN
Experiment: mRNA-display cyclic peptide screen against CD59-biotin, NGS abundance after 6th selection round
Conditions: for Percentage Seq I: counts normalised by total counts of sample Seq I; for Percentage Seq I / Percentage Seq II: percentage of the pool; for Percentage Seq I / Percentage Seq II / Percentage Average / Percentage of the pool, averaged across the two sequencing samples / Percentage of the pool, Seq I / Percentage of the pool, Seq II: sheet R6; for Percentage Seq II: counts normalised by total counts of sample Seq II; for Percentage Average: percentage of the pool averaged across the two sequencing samples; for Counts Seq I / Counts Seq II: raw NGS counts of peptide sequence; for Counts Seq I: sequencing sample Seq I; for Counts Seq I / Counts Seq II / Counts (raw counts for peptide sequence), Seq I / Counts (raw counts for peptide sequence), Seq II: sheet R6 (6th selection round); for Counts Seq II: sequencing sample Seq II; for Counts (raw counts for peptide sequence), Seq I: NGS sample Seq I; for Counts (raw counts for peptide sequence), Seq II: NGS sample Seq II; for Percentage of the pool, averaged across the two sequencing samples: average of Seq I and Seq II; for Percentage of the pool, Seq I: counts normalised by total counts of NGS sample Seq I; for Percentage of the pool, Seq II: counts normalised by total counts of NGS sample Seq II
Summary of the method: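 Peptide–mRNA fusions were made by in vitro translation with a customised PURE express kit. The kit lacked release factor 1 and methionine and was supplemented with […] initiator tRNA carrying N-chloroacetyl-d-tyrosine. Thioether macrocycles were formed, then enriched and amplified over iterative rounds on CD59-biotin immobilised on streptavidin beads. NGS read counts per sequence were recorded after the 6th selection round.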

| Sequence | Percentage Seq I [%] | Percentage Seq II [%] | Percentage Average [%] | Counts Seq I | Counts Seq II | Counts (raw counts for peptide sequence), Seq I | Counts (raw counts for peptide sequence), Seq II | Percentage of the pool, averaged across the two sequencing samples [%] | Percentage of the pool, Seq I [%] | Percentage of the pool, Seq II [%] |
| --- | --- | --- | --- | --- | --- | --- | --- | --- | --- | --- |
| VKYGNSNFVRE | 0.047 | 0.060 | 0.054 | 207 | 26 |  |  |  |  |  |
| VKYGNSNFVRG | 0.660 | 0.657 | 0.659 | 2889 | 283 |  |  |  |  |  |
| VLCHRWHVGSHR |  |  |  |  |  | 54 | 7 | 0.014 | 0.012 | 0.016 |
| VSRGDSTYTLF | 0.031 | 0.028 | 0.030 | 137 | 12 |  |  |  |  |  |
| VVHGGKDYQWS |  |  |  |  |  | 64 | 5 | 0.013 | 0.015 | 0.012 |
| VVRGGTAFRYE | 0.022 | 0.026 | 0.024 | 96 | 11 |  |  |  |  |  |
| VWGNRWTRIYW | 0.037 | 0.035 | 0.036 | 161 | 15 |  |  |  |  |  |
| VYGSRYASIPFC |  |  |  |  |  | 45 | 9 | 0.016 | 0.010 | 0.021 |
| WAKGSDTFTSG |  |  |  |  |  | 141 | 1 | 0.017 | 0.032 | 0.00232 |
| WATGSATFSSG | 0.730 | 0.673 | 0.702 | 3196 | 290 |  |  |  |  |  |
| WILGSRWWTQR | 0.021 | 0.021 | 0.021 | 91 | 9 |  |  |  |  |  |
| WILGSRWWTQS | 0.921 | 0.903 | 0.912 | 4031 | 389 |  |  |  |  |  |
| WILGSRWWTQT | 0.032 | 0.030 | 0.031 | 139 | 13 |  |  |  |  |  |
| WILGSRWWTRS | 0.097 | 0.111 | 0.104 | 424 | 48 |  |  |  |  |  |
| WIRGNRDESLG |  |  |  |  |  | 46 | 7 | 0.013 | 0.011 | 0.016 |
| WIRGSRFYRVI | 0.387 | 0.334 | 0.360 | 1692 | 144 |  |  |  |  |  |
| WIRGSRWWTQS | 0.033 | 0.035 | 0.034 | 146 | 15 |  |  |  |  |  |
| WIYGGRHFRLS |  |  |  |  |  | 82 | 2 | 0.012 | 0.019 | 0.00464 |
| WRDRFDQCAL |  |  |  |  |  | 67 | 6 | 0.015 | 0.015 | 0.014 |
| WRDRFDQCIL |  |  |  |  |  | 60 | 5 | 0.013 | 0.014 | 0.012 |
| WRDRFDQCVI |  |  |  |  |  | 37 | 5 | 0.010 | 0.00846 | 0.012 |
| WRDRFDQCVL | 2.463 | 2.351 | 2.407 | 10776 | 1013 |  |  |  |  |  |
| WRDRFDQCVP | 0.038 | 0.053 | 0.046 | 167 | 23 |  |  |  |  |  |
| WRDRFDQCVR | 0.039 | 0.053 | 0.046 | 169 | 23 |  |  |  |  |  |

| Sequence | Percentage Seq I [%] | Percentage Seq II [%] | Percentage Average [%] | Counts Seq I | Counts Seq II | Counts (raw counts for peptide sequence), Seq I | Counts (raw counts for peptide sequence), Seq II | Percentage of the pool, averaged across the two sequencing samples [%] | Percentage of the pool, Seq I [%] | Percentage of the pool, Seq II [%] |
| --- | --- | --- | --- | --- | --- | --- | --- | --- | --- | --- |
| WRDRFDRCVL | 0.020 | 0.032 | 0.026 | 86 | 14 |  |  |  |  |  |
| WRDRFGQCVL |  |  |  |  |  | 27 | 7 | 0.011 | 0.006 | 0.016 |
| WRDRLDQCVL | 0.019 | 0.021 | 0.020 | 85 | 9 |  |  |  |  |  |
| WSTGSSTFAAG | 0.034 | 0.042 | 0.038 | 149 | 18 |  |  |  |  |  |
| WSTRERQISC |  |  |  |  |  | 70 | 3 | 0.011 | 0.016 | 0.007 |
| WSTRTFTCRTLL | 0.395 | 0.446 | 0.420 | 1728 | 192 |  |  |  |  |  |
| WTCHLRHDGPHA | 1.997 | 2.114 | 2.056 | 8737 | 911 |  |  |  |  |  |
| WTRGSKDYARG |  |  |  |  |  | 49 | 5 | 0.011 | 0.011 | 0.012 |
| WTRGSKDYTRG | 0.168 | 0.167 | 0.168 | 737 | 72 |  |  |  |  |  |
| WVYGSRYWRSI | 0.030 | 0.014 | 0.022 | 132 | 6 |  |  |  |  |  |
| WVYGSSTFRYQ | 0.030 | 0.030 | 0.030 | 133 | 13 |  |  |  |  |  |
| YAFGSRDITYY | 0.018 | 0.023 | 0.021 | 78 | 10 |  |  |  |  |  |
| YAQGDKLTARG | 0.028 | 0.026 | 0.027 | 124 | 11 |  |  |  |  |  |
| YARGDASHTIW | 0.043 | 0.056 | 0.049 | 186 | 24 |  |  |  |  |  |
| YARGNNASQFF | 0.089 | 0.088 | 0.089 | 391 | 38 |  |  |  |  |  |
| YAWGNRNNAYY | 0.060 | 0.049 | 0.054 | 263 | 21 |  |  |  |  |  |
| YCWVRGSRNYT | 0.064 | 0.060 | 0.062 | 279 | 26 |  |  |  |  |  |
| YGASPTSLCSGI | 0.166 | 0.186 | 0.176 | 727 | 80 |  |  |  |  |  |
| YIIGSSDYTRG | 0.033 | 0.039 | 0.036 | 146 | 17 |  |  |  |  |  |
| YIRGTQDTFLF |  |  |  |  |  | 46 | 7 | 0.013 | 0.011 | 0.016 |
| YIVGSSDYTRG | 0.417 | 0.388 | 0.402 | 1825 | 167 |  |  |  |  |  |
| YIYWSFTSARG | 0.050 | 0.032 | 0.041 | 219 | 14 |  |  |  |  |  |
| YLFGDRFSVRG | 0.094 | 0.100 | 0.097 | 412 | 43 |  |  |  |  |  |
